Holding throughout (test): FRET or BRET
The target in assay [1] is T1, Gα13 K94E/R97E (human, UniProt Q14344 1-377, K94E | R97E).
T1 sequence (looked up): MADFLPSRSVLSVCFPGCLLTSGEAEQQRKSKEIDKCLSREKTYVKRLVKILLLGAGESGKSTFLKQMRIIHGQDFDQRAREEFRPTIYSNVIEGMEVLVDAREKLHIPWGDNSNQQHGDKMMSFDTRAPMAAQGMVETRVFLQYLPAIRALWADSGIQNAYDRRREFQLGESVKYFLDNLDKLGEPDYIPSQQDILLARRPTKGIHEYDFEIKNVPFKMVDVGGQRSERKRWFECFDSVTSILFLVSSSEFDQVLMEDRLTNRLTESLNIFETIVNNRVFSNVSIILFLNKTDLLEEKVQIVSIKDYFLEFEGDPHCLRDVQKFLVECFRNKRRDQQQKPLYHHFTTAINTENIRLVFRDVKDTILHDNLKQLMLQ

Assay [2] concerns the target T2, Gα13 R279A (human, UniProt Q14344 1-377, R279A).
T2 sequence (looked up): T1 sequence (looked up) with E94K, E97R, R279A

For assay [3], the target named is Gα13 R201V (human) (UniProt Q14344).
Assay [4] addresses Gα13 with mutations in three helical domain residues.
The target in assay [5] is T3, Gα13 P202A (human, UniProt Q14344 1-377, P202A).
T3 sequence (looked up): T1 sequence (looked up) with E94K, E97R, P202A

Assay [6] deals with T4, Gα12 (human, UniProt Q03113 1-381).
T4 sequence: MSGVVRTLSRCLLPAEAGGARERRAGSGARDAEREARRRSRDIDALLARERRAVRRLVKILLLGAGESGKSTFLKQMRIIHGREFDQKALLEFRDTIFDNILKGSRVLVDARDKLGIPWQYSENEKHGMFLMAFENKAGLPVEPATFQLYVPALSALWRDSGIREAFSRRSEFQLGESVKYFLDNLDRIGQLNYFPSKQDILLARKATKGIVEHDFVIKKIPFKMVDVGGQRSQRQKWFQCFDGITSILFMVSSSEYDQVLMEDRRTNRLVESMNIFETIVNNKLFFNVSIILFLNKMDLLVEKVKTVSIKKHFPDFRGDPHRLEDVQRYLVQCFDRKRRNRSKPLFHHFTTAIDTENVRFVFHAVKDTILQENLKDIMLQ

Assay [7] deals with T5, Gα13 (human, UniProt Q14344 1-377).
T5 sequence: T1 sequence (looked up) with E94K, E97R

Residue numbers refer to the chain shown, from its start. Names and notes keep the numbering of the source.

B1: PDZ RhoGEF-RlucII sensor (domain or fragment, UniProt O15085 281-483, looked up)
chain: QGVDQSPKPLIIGPEEDYDPGYFNNESDIIFQDLEKLKSRPAHLGVFLRYIFSQADPSPLLFYLCAEVYQQASPKDSRSLGKDIWNIFLEKNAPLRVKIPEMLQAEIDSRLRNSEDARGVLCEAQEAAMPEIQEQIHDYRTKRTLGLGSLYGENDLLDLDGDPLRERQVAEKQLAALGDILSKYEEDRSAPMDFALNTYMSHA
As to B1, the “percent reduction of recruitment against WT Gα13” value in assay [1] is 71%; in assay [2], 50%.

B2: p115 RhoGEF (21-244)-RlucII (domain or fragment, UniProt Q92888 21-244, looked up)
chain: VSIIGAEDEDFENELETNSEEQNSQFQSLEQVKRRPAHLMALLQHVALQFEPGPLLCCLHADMLGSLGPKEAKKAFLDFYHSFLEKTAVLRVPVPPNVAFELDRTRADLISEDVQRRFVQEVVQSQQVAVGRQLEDFRSKRLMGMTPWEQELAQLEAWVGRDRASYEARERHVAERLLMHLEEMQHTISTDEEKSAAVVNAIGLYMRHLGVRTKSGDKKSGRNF
Take B2: the percent reduction of recruitment against WT Gα13 is 26% in assay [3]; 27 to 81% in assay [4]; 81% in assay [1]; 50% in assay [2]; 37% in assay [5].

B3: p115 RhoGEF (21-244)-RlucII I23F (domain or fragment)
chain: B2 chain with I3F
Turning to B3, the “percent reduction of recruitment against WT p115RhoGEF sensor” value in assay [6] and in assay [7] was approximately 50% each time.

B4: p115 RhoGEF (21-244)-RlucII I23A (domain or fragment)
chain: B2 chain with I3A
Turning to B4, the “percent reduction of recruitment against WT p115RhoGEF sensor” value in assay [6] and in assay [7] was approximately 50% throughout.

B5: p115 RhoGEF (21-244)-RlucII E27A (domain or fragment)
chain: B2 chain with E7A
Regarding B5, the “percent reduction of recruitment against WT p115RhoGEF sensor” value in assay [6] and in assay [7] was approximately 50% in each case.

These data come from article doi:10.1101/2024.12.28.630591 (bioRxiv, 2024).
